Data from publication PMC6949489, “Glutathione peroxidase 8 negatively regulates caspase‐4/11 to protect against colitis” (EMBO Molecular Medicine, 2019).

Target: the molecule itself
Experiment: native gel or EMSA; blue native PAGE (3-12%) and immunoblot; purified caspase-4 (C258S) incubated with or without oxidized GPx8 30 min at 4°C, then with different amounts of LPS 30 min at 37°C; LPS-induced oligomerization

B1: FLAG-tagged human caspase-4 (C258S) protease-deficient mutant (natural protein, UniProt P49662 1-377, looked up)
chain: MAEGNHRKKPLKVLESLGKDFLTGVLDNLVEQNVLNWKEEEKKKYYDAKTEDKVRVMADSMQEKQRMAGQMLLQTFFNIDQISPNKKAHPNMEAGPPESGESTDALKLCPHEEFLRLCKERAEEIYPIKERNNRTRLALIICNTEFDHLPPRNGADFDITGMKELLEGLDYSVDVEENLTARDMESALRAFATRPEHKSSDSTFLVLMSHGILEGICGTVHDEKKPDVLLYDTIFQIFNNRNCLSLKDKPKVIIVQASRGANRGELWVRDSPASLEVASSQSSENLEEDAVYKTHVEKDFIAFCSSTPHNVSWRDSTMGSIFITQLITCFQKYSWCCHLEEVFRKVQQSFETPRAKAQMPTIERLSMTRYFYLFPGN
notes: human caspase-4 with the protease-deficient mutation C258S; also called Casp4C258S; source: 293T, transfected, in lysate
- binding result: binds
